Positions count from the first letter of the chain named.
B1: 18I 31M 55M 72A (protein, listed as Rattus norvegicus)
chain: AFDGTWKVDRNENYEKFIEKMGINVVKRKLMAHDNLKLTITQEGNKFTVKESSNMRNIDVVFELGVDFAYSAADGTELTGTWTMEGNKLVGKFKRVDNGKELIAVREISGNELIQTYTYEGVEAKRIFKKE
modifications: PEPTIDE (1)...(131) wild-type rat intestinal fatty acid binding protein
B2: 18V 31A 55I 72A (protein, listed as Rattus norvegicus)
chain: B1 chain with I18V, M31A, M55I
modifications: PEPTIDE (1)...(131) wild-type rat intestinal fatty acid binding protein
B3: 14M 18L 31W 73I 117G 72A (protein, listed as Rattus norvegicus)
chain: B1 chain with Y14M, I18L, M31W, M55F, A73I, Y117G
modifications: PEPTIDE (1)...(131) wild-type rat intestinal fatty acid binding protein
B4: 72T 73I 74A (protein, listed as Rattus norvegicus)
chain: B1 chain with I18M, M31G, M55F, A72T, A73I, D74A
modifications: PEPTIDE (1)...(131) wild-type rat intestinal fatty acid binding protein
B5: 72S 74A (protein, listed as Rattus norvegicus)
chain: B1 chain with I18M, M31G, M55F, A72S, D74A
modifications: PEPTIDE (1)...(131) wild-type rat intestinal fatty acid binding protein
B6: 72S 73V 74A (protein, listed as Rattus norvegicus)
chain: B1 chain with I18M, M31G, M55F, A72S, A73V, D74A
modifications: PEPTIDE (1)...(131) wild-type rat intestinal fatty acid binding protein
B7: 72T 73G 74I (protein, listed as Rattus norvegicus)
chain: B1 chain with I18M, M31G, M55F, A72T, A73G, D74I
modifications: PEPTIDE (1)...(131) wild-type rat intestinal fatty acid binding protein
B8: 18I 31Y 72A (protein, listed as Rattus norvegicus)
chain: B1 chain with M31Y, M55F
modifications: PEPTIDE (1)...(131) wild-type rat intestinal fatty acid binding protein
B9: 18I 31Y 73G 72A (protein, listed as Rattus norvegicus)
chain: B1 chain with M31Y, M55F, A73G
modifications: PEPTIDE (1)...(131) wild-type rat intestinal fatty acid binding protein
B10: 72T 74S (protein, listed as Rattus norvegicus)
chain: B1 chain with I18M, M31G, M55F, A72T, D74S
modifications: PEPTIDE (1)...(131) wild-type rat intestinal fatty acid binding protein
B11: 14R 18L 31S 73F 117E 72A (protein, listed as Rattus norvegicus)
chain: B1 chain with Y14R, I18L, M31S, M55F, A73F, Y117E
modifications: PEPTIDE (1)...(131) wild-type rat intestinal fatty acid binding protein
B12: 38H 62W 106V 117A 72A (protein, listed as Rattus norvegicus)
chain: B1 chain with I18M, M31G, L38H, M55F, F62W, R106V, Y117A
modifications: PEPTIDE (1)...(131) wild-type rat intestinal fatty acid binding protein
B13: 14R 18L 73L 117D 72A (protein, listed as Rattus norvegicus)
chain: B1 chain with Y14R, I18L, M31G, M55F, A73L, Y117D
modifications: PEPTIDE (1)...(131) wild-type rat intestinal fatty acid binding protein
B14: 72A 74N (protein, listed as Rattus norvegicus)
chain: B1 chain with I18M, M31G, M55F, D74N
modifications: PEPTIDE (1)...(131) wild-type rat intestinal fatty acid binding protein
B15: 14L 18L 31S 73W 117V 72A (protein, listed as Rattus norvegicus)
chain: B1 chain with Y14L, I18L, M31S, M55F, A73W, Y117V
modifications: PEPTIDE (1)...(131) wild-type rat intestinal fatty acid binding protein
B16: 18V 31V 73I 72A (protein, listed as Rattus norvegicus)
chain: B1 chain with I18V, M31V, M55F, A73I
modifications: PEPTIDE (1)...(131) wild-type rat intestinal fatty acid binding protein
B17: 18I 31L 73G 72A (protein, listed as Rattus norvegicus)
chain: B1 chain with M31L, M55F, A73G
modifications: PEPTIDE (1)...(131) wild-type rat intestinal fatty acid binding protein
B18: 14L 18L 73W 117S 72A (protein, listed as Rattus norvegicus)
chain: B1 chain with Y14L, I18L, M31G, M55F, A73W, Y117S
modifications: PEPTIDE (1)...(131) wild-type rat intestinal fatty acid binding protein
B19: 38W 106H 117A 72A (protein, listed as Rattus norvegicus)
chain: B1 chain with I18M, M31G, L38W, M55F, R106H, Y117A
modifications: PEPTIDE (1)...(131) wild-type rat intestinal fatty acid binding protein
B20: 18I 31L 72A (protein, listed as Rattus norvegicus)
chain: B1 chain with M31L, M55F
modifications: PEPTIDE (1)...(131) wild-type rat intestinal fatty acid binding protein

assay: Probe fluorescence ratio response to arachidonic acid relative to ADIFAB2; format: binding; details: arachidonic acid; response relative to ADIFAB2
Outline: (§1)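 Fluorescently labeled rat intestinal FABP variants were read at two emission wavelengths, near the unbound maximum (about 420 to 480 nm) and the FFA-bound maximum (about 495 to 580 nm). R = Fλ1/Fλ2 after subtracting probe-free intensity; ΔR = R+agent − R0, normalized to ADIFAB2 (rI-FABP-L72A).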

Molecule | DR/DR AA
B1 | 1.010
B2 | 0.989
B3 | 2.032
B4 | 2.148
B5 | 1.648
B6 | 2.127
B7 | 2.226
B8 | 2.205
B9 | 1.796
B10 | 2.035
B11 | 1.241
B12 | 2.007
B13 | 1.029
B14 | 1.614
B15 | 1.458
B16 | 0.863
B17 | 0.981
B18 | 1.010
B19 | 1.326
B20 | 1.054

assay: Probe fluorescence ratio response to stearic acid relative to ADIFAB2; format: binding; details: response relative to ADIFAB2
Outline: as §1

Molecule | DR/DR SA
B1 | 0.296
B2 | 0.420
B3 | 0.487
B4 | 1.359
B5 | 1.114
B6 | 1.572
B7 | 1.755
B8 | 0.994
B9 | 0.860
B10 | 1.779
B11 | 0.378
B12 | 0.947
B13 | 0.213
B14 | 1.299
B15 | 0.329
B16 | 0.311
B17 | 0.267
B18 | −0.005
B19 | 0.071
B20 | 0.305

assay: Probe fluorescence ratio response to linolenic acid relative to ADIFAB2; format: binding; details: response relative to ADIFAB2
Outline: as §1

Molecule | DR/DR LNA
B1 | 1.358
B2 | 1.580
B3 | 1.869
B4 | 1.944
B5 | 2.002
B6 | 2.330
B7 | 2.317
B8 | 2.813
B9 | 2.706
B10 | 2.621
B11 | 2.296
B12 | 1.796
B13 | 1.790
B14 | 1.701
B15 | 1.631
B16 | 1.531
B17 | 1.525
B18 | 1.499
B19 | 1.397
B20 | 1.384

assay: Probe fluorescence ratio response to linoleic acid relative to ADIFAB2; format: binding; details: response relative to ADIFAB2
Outline: as §1

Molecule | DR/DR LA
B1 | 1.134
B2 | 1.334
B3 | 2.034
B4 | 1.795
B5 | 2.037
B6 | 2.397
B7 | 2.577
B8 | 2.790
B9 | 2.559
B10 | 2.469
B11 | 1.947
B12 | 1.337
B13 | 1.766
B14 | 1.681
B15 | 1.569
B16 | 1.151
B17 | 1.146
B18 | 1.385
B19 | 1.248
B20 | 1.198

assay: Probe fluorescence ratio response to oleic acid relative to ADIFAB2; format: binding; details: response relative to ADIFAB2
Outline: as §1

Molecule | DR/DR OA
B1 | 0.601
B2 | 0.791
B3 | 1.712
B4 | 1.721
B5 | 1.575
B6 | 2.295
B7 | 2.414
B8 | 2.096
B9 | 1.632
B10 | 2.252
B11 | 1.146
B12 | 1.239
B13 | 0.847
B14 | 1.629
B15 | 1.208
B16 | 0.670
B17 | 0.595
B18 | 0.374
B19 | 0.831
B20 | 0.719

assay: Probe fluorescence ratio response to palmitic acid relative to ADIFAB2; format: binding; details: response relative to ADIFAB2
Outline: as §1

Molecule | DR/DR PA
B1 | 1.099
B2 | 1.280
B3 | 0.998
B4 | 1.687
B5 | 1.615
B6 | 2.601
B7 | 2.177
B8 | 1.762
B9 | 1.886
B10 | 2.209
B11 | 0.693
B12 | 1.002
B13 | 0.294
B14 | 1.308
B15 | 0.692
B16 | 1.302
B17 | 1.137
B18 | 0.259
B19 | 0.426
B20 | 1.182

assay: Probe fluorescence ratio response to palmitoleic acid relative to ADIFAB2; format: binding; details: response relative to ADIFAB2
Outline: as §1

Molecule | DR/DR POA
B1 | 1.353
B2 | 1.563
B3 | 1.569
B4 | 2.320
B5 | 2.034
B6 | 2.727
B7 | 2.771
B8 | 2.639
B9 | 2.637
B10 | 2.471
B11 | 1.290
B12 | 1.145
B13 | 0.801
B14 | 1.536
B15 | 1.356
B16 | 1.334
B17 | 1.377
B18 | 0.750
B19 | 1.098
B20 | 1.187
